Two molecules from patent US20100310509A1 (published 2010) can be followed below.

Assay [1] concerns the target T1, soluble human OSMR (Oncostatin M receptor) (human, UniProt Q99650 28-740).
T1 construct: extracellular domain; Bought; also called soluble OSMR
T1 sequence (looked up): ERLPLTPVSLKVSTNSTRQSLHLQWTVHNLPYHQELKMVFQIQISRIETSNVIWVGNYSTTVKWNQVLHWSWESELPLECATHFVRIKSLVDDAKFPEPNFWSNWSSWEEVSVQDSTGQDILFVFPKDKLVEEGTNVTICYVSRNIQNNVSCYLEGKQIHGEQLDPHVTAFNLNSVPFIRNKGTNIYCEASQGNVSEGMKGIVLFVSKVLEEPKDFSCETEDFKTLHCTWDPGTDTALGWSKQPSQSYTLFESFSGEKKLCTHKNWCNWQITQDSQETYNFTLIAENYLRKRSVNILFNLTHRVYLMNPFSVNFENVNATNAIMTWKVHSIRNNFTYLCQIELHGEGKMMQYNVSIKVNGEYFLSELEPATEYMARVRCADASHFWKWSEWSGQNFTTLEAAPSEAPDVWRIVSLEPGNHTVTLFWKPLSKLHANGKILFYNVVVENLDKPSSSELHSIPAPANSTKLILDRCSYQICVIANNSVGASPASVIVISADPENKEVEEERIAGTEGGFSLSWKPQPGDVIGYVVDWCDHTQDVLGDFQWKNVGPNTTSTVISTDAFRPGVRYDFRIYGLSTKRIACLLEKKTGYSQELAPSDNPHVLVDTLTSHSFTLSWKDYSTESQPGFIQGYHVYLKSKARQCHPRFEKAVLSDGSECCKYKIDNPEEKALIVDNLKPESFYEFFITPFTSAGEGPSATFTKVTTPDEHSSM
In words: SPR (SensiQ), OSM-WT immobilised, soluble OSMR injected (150nM, 100nM, 50nM, 25nM, 10nM, 5nM). As to the method:
(§1) Surface Plasmon Resonance (SPR): Kinetic parameters of the interactions between receptor domains and the cytokines LIF, OSM-WT, OSM-M1 or OSM-M2 were analyzed by SPR using the SENSIQ® system (ICX Technologies, Oklahoma City, Okla.) as described by the manufacturer protocol. Briefly, a carboxyl sensor with two channels was installed in SENSIQ® and allowed to thermally equilibrate for about 15 minutes. The channels were initially cleaned with a 3 minute injection of 0.1 M HCl. An activation solution of 2 mM 1-Ethyl-3-[3-dimethylaminopropyl]carbodiimide hydrochloride (EDC) and 0.5 mM N-hydroxysulfo succinimide (NHS) was prepared in deionized water immediately before injection. Activation solution was injected over both channels for approximately 3 minutes followed by a 10 minute injection of 50 μg/mL cytokine (LIF, OSM-WT, OSM-M1 or OSM-M2) in 10 mM acetate buffer, pH 5.0, over channel 1. […] Unreacted NHS esters were capped with a 3 minute injection of 1 M ethanolamine, pH 8.0, over both channels. […] A concentration series of soluble LIFR (# 249-LR-050/CF, R&D Systems, Minneapolis, Minn.), soluble OSMR (# 4389-OR-50, R&D Systems, Minneapolis, Minn.) or soluble gp130 (# 228-GP-050/CF, R&D Systems, Minneapolis, Minn.) in running buffer (10 mM HEPES pH 7.4, 150 mM NaCl, 3.4 mM EDTA, 0.005% Tween-20) were injected over both channels at a flow rate of 25 μl/min. […]

Assay [2] concerns the target T1, soluble human OSMR (Oncostatin M …). In words: SPR (SensiQ), LIF immobilised, soluble OSMR injected (150nM, 100nM, 50nM, 25nM, 10nM, 5nM). As to the method:
as §1

B1: OSM-WT ('AGA' modified human Oncostatin M, referred to as wild-type OSM) (ligand)
chain: AAIGSCSKEYRVLLGQLQKQTDLMQDTSRLLDPYIRIQGLDVPKLREHCRERPGAFPSEETLRGLGRRGFLQTLNATLGCVLHRLADLEQRLPKAQDLERSGLNIEDLEKLQMARPNILGLRNNIYCMAQLLDNSDTAEPTKAGAGASQPPTPTPASDAFQRKLEGCRFLHGYHRFMHSVGRVFSKWGESPN
notes: also called hOSM with AGA modification; not shown: N-terminal FLAG tag left after thrombin removal of GST
With B1, the binding result in assay [1] is recorded as “no binding (tested: 150 nM)”.

B2: human leukemia inhibitory factor (LIF) (ligand)
chain: not shown
notes: Purified recombinant protein; also called hLIF
Take B2: the binding result in assay [2] is recorded as “no binding (tested: 150 nM)”.
